Data taken from article PMC2185075 (The Journal of Cell Biology, 1999).
Where two headings read alike, the source gives them in different places.

Assays:
Experiment in all cases: two-hybrid
SC35, two-hybrid fusion [1] = molecular target: SC35, two-hybrid fusion (UniProt Q01130)
[2] = molecular target: ASF/SF2, two-hybrid fusion (UniProt Q07955)
SC35, two-hybrid fusion [3] = molecular target: SC35, two-hybrid fusion (UniProt Q01130); remark: listed apart in the source
[4] = molecular target: ASF/SF2, two-hybrid fusion (UniProt Q07955); remark: listed apart in the source
SC35, two-hybrid fusion [5] = molecular target: SC35, two-hybrid fusion (UniProt Q01130); remark: listed apart in the source
[6] = molecular target: ASF/SF2, two-hybrid fusion (UniProt Q07955); remark: listed apart in the source
[7] = molecular target: ASF/SF2, two-hybrid fusion (UniProt Q07955); remark: listed apart in the source
[8] = molecular target: T1, U2AF65, two-hybrid fusion (UniProt P26368 1-475)
T1 sequence (P26368 whole entry, the tested form may be a part, one chain of several): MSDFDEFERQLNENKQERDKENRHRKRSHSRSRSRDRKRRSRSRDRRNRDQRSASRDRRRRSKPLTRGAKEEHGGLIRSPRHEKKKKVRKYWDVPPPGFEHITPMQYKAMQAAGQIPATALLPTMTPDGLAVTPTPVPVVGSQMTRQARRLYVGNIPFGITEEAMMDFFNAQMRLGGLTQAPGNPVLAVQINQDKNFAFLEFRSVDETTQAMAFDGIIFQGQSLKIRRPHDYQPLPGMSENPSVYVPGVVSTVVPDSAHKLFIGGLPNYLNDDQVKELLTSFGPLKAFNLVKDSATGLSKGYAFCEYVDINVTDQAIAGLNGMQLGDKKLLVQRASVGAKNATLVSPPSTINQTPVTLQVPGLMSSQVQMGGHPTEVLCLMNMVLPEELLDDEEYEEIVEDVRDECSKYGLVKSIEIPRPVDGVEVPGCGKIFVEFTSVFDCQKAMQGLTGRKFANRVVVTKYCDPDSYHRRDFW

[9] = molecular target: T2, U2AF65ΔRS, two-hybrid fusion (UniProt P26368 66-475)
T2 sequence (P26368 66-475, stated change not applied): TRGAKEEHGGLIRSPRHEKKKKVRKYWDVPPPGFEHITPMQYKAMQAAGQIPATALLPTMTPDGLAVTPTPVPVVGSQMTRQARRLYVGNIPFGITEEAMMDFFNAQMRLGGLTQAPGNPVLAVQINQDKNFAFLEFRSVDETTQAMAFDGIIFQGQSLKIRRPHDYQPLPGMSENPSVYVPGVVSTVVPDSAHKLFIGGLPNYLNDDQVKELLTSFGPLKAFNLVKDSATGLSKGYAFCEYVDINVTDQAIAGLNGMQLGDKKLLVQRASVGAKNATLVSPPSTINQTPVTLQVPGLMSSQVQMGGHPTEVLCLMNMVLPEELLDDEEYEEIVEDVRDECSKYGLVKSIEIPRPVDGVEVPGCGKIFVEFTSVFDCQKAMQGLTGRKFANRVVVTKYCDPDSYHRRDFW

[10] = molecular target: T1, U2AF65, two-hybrid fusion; remark: listed apart in the source
[11] = molecular target: T2, U2AF65ΔRS, two-hybrid fusion; remark: listed apart in the source

Sequence of U1-70K, two-hybrid fusion (P08621 whole entry, the tested form may be a part): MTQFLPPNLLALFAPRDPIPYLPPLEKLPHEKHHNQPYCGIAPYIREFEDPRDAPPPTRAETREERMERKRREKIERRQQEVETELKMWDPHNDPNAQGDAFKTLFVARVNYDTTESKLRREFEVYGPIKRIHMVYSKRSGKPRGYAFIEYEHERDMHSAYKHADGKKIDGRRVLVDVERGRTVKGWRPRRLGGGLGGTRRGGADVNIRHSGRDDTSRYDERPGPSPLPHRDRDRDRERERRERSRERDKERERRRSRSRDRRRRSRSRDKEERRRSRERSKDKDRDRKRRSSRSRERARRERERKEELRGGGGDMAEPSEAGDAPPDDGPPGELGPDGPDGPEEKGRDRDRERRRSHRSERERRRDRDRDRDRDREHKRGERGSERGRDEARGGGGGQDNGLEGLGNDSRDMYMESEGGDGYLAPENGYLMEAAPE
Sequence of SC35, two-hybrid fusion (Q01130 whole entry, the tested form may be a part): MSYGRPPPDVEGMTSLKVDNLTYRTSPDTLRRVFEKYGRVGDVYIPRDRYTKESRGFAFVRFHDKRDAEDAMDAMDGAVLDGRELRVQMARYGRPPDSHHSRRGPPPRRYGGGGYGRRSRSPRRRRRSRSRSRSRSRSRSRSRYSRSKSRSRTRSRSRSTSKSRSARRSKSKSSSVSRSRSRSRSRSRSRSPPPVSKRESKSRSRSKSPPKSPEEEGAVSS
Sequence of ASF/SF2, two-hybrid fusion (Q07955 whole entry, the tested form may be a part): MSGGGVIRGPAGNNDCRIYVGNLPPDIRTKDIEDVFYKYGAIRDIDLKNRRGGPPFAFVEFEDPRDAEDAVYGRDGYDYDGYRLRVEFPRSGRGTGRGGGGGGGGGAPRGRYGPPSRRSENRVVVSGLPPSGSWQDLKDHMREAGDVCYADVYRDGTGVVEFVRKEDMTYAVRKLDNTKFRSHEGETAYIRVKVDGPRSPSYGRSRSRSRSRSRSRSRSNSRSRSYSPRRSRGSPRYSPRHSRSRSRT

| percentage of the maximal two-hybrid interaction (β-galactosidase) (SC35, two-hybrid fusion [1]) [%] | percentage of the maximal two-hybrid interaction (β-galactosidase) [2] [%] | percentage of the maximal two-hybrid interaction (β-galactosidase) (SC35, two-hybrid fusion [3]) [%] | percentage of the maximal two-hybrid interaction (β-galactosidase) [4] [%] | percentage of the maximal two-hybrid interaction (β-galactosidase) (SC35, two-hybrid fusion [5]) [%] | percentage of the maximal two-hybrid interaction (β-galactosidase) [6] [%] | percentage of the maximal two-hybrid interaction (β-galactosidase) [7] [%] | two-hybrid β-galactosidase, fold over background (empty prey vector) [8] [fold over background] | two-hybrid β-galactosidase, fold over background (empty prey vector) [9] [fold over background] | two-hybrid β-galactosidase, fold over background (empty prey vector) [10] [fold over background] | two-hybrid β-galactosidase, fold over background (empty prey vector) [11] [fold over background] | Molecule |
| --- | --- | --- | --- | --- | --- | --- | --- | --- | --- | --- | --- |
| 100 | 100 | 104 | 100 | 86 | 98 | 35 |  |  |  |  | U1-70K, two-hybrid fusion (from UniProt P08621 1-437) (natural protein; other documents disagree on this pair) |
|  |  |  |  |  |  |  | 308 | 347 | 93 | 460 | U2AF35ΔRS, two-hybrid fusion (domain or fragment) MAEYLASIFGTEKDKVNCSFYFKIGACRHGDRCSRLHNKPTFSQTIALLNIYRNPQNSSQSADGLRCAVSDVEMQEHYDEFFEEVFTEMEEKYGEVEEMNVCDNLGDHLVGNVYVKFRREEDAEKAVIDLNNRWFNGQPIHAELSPVTDFREACCRQYEMGECTRGGFCNFMHLKPISRELRRELYGRRR |
|  |  |  |  |  |  |  |  | 340 |  |  | U2AF35, two-hybrid fusion (natural protein) MAEYLASIFGTEKDKVNCSFYFKIGACRHGDRCSRLHNKPTFSQTIALLNIYRNPQNSSQSADGLRCAVSDVEMQEHYDEFFEEVFTEMEEKYGEVEEMNVCDNLGDHLVGNVYVKFRREEDAEKAVIDLNNRWFNGQPIHAELSPVTDFREACCRQYEMGECTRGGFCNFMHLKPISRELRRELYGRRRKKHRSRSRSRERRSRSRDRGRGGGGGGGGGGGGRERDRRRSRDRERSGRF |
